# According to the supplement of paper PMC10126150:
# ± gives the standard deviation of the averaged measurements.
# Tested on: ATP
# Assay: switch fluorescence ratio, 500 uM ATP over buffer (Cy3 cluster intensity, sum of 5 cycles each) (fold (ratio)); higher = stronger signal-on switching upon ATP binding; sequences stand for … in TCGTCGGCAGCGTCAGATGTGTATAAGAGACAGTTTTTTTTTTTTTTTTTTTTTTTTT…TC
# Conditions: aptamer strand: ATP DNA aptamer (quencher-CACCTGGGGGAGTATTGCGGAGGAAGG + anchor), 100 nM annealed; ATP concentration: 500 uM
# In short: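 Cy3-labelled switching-strand clusters on a modified Illumina MiSeq flow-cell were annealed to 100 nM quencher-labelled ATP aptamer, imaged in selection buffer, then imaged after 15 min with 500 uM ATP at 22 °C. Five buffer/ATP cycles ran, with NaOH stripping and re-annealing between them. The fluorescence ratio is summed target-cycle over summed buffer-cycle Cy3 intensity per cluster, averaged per switch-domain sequence. Clusters outside 100-1000 RFU were excluded.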
# 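Further: ATP exposure 15 min at 22 °C before imaging.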
row,Sequence,switch fluorescence ratio
1,CGCGGGGTCC,1.05 ± 0.048
2,CGCGGGTAAC,1.036 ± 0.0077
3,CGCGGGTTGA,1.053 ± 0.0094
4,CGCGGTACGG,1.47 ± 0.39
5,CGCGGTTCTG,1.01 ± 0.029
6,CGCGTAGAC,1.66 ± 0.14
7,CGCGTATTGT,0.999 ± 0.016
8,CGCGTGGCGG,0.999 ± 0.024
9,CGCGTTGGCA,1.04 ± 0.028
10,CGCTCACGGT,1.066 ± 0.0026
11,CGCTCGGGTT,1.003 ± 0.0025
12,CGCTCGTTGT,0.9559 ± 0.0033
13,CGCTGACCTT,1.2 ± 0.037
14,CGCTGGGGGA,1.055 ± 0.0022
15,CGCTGGGGTT,0.9962 ± 0.0047
16,CGCTGTGAAG,1.02 ± 0.012
17,CGCTGTGATG,1.013 ± 0.0053
18,CGCTGTTTTT,1.02 ± 0.024
19,CGCTTATCCT,1.1 ± 0.038
20,CGCTTCTAGG,1.04 ± 0.024
21,CGCTTGAGA,1.04 ± 0.026
22,CGCTTGGCTG,0.981 ± 0.051
23,CGCTTGGTAC,3.39 ± 0.079
24,CGCTTTAATA,1.07 ± 0.019
25,CGGAAAATTT,1.01 ± 0.075
26,CGGAAAGTGT,0.996 ± 0.024

row,Sequence,switch fluorescence ratio
1,CGGAAGCATG,1.13 ± 0.047
2,CGGAAGCGTG,0.984 ± 0.016
3,CGGAAGCTCT,1.036 ± 0.0028
4,CGGAAGGGCC,0.995 ± 0.03
5,CGGAAGTGCG,1.0061 ± 6.8e-05
6,CGGAATGGTT,1.04 ± 0.036
7,CGGACCGGGG,0.996 ± 0.041
8,CGGACCTAGT,0.9689 ± 0.0042
9,CGGACGGCTC,1.093 ± 0.01
10,CGGACTGGTT,1.005 ± 0.0057
11,CGGACTTATT,0.9686 ± 0.0054
12,CGGAGAATAG,1.234 ± 0.012
13,CGGAGACCGT,1 ± 0.022
14,CGGAGACGTG,1 ± 0.025
15,CGGAGAGGGT,1 ± 0.029
16,CGGAGAGTAG,1.03 ± 0.018
17,CGGAGGAATT,1.2 ± 0.11
18,CGGAGGATGG,0.9867 ± 0.0084
19,CGGAGGCAAG,1.14 ± 0.045
20,CGGAGGGGAT,1.062 ± 0.005
21,CGGAGGGGCC,1.02 ± 0.033
22,CGGAGTCGGG,1.04 ± 0.052
23,CGGAGTTGCG,0.98 ± 0.013
24,CGGATAATTG,0.9886 ± 0.0054
25,CGGATATGGA,0.988 ± 0.058
26,CGGATATGGC,1.03 ± 0.1

row,Sequence,switch fluorescence ratio
1,CGGATATTGC,1 ± 0.059
2,CGGATCCAGG,1.35 ± 0.042
3,CGGATCGATT,0.9907 ± 0.0018
4,CGGATGAGTG,0.953 ± 0.1
5,CGGATGGGGC,1 ± 0.042
6,CGGATTAGGT,0.993 ± 0.028
7,CGGATTCGTA,0.986 ± 0.036
8,CGGATTGTAG,1.03 ± 0.04
9,CGGCAAGTGG,1.05 ± 0.031
10,CGGCAATCCT,3.99 ± 0.15
11,CGGCAGGGGG,1.06 ± 0.1
12,CGGCATGCGG,1.022 ± 0.0035
13,CGGCATGGAG,0.996 ± 0.025
14,CGGCCAGCTG,1.03 ± 0.03
15,CGGCCCACGC,1.04 ± 0.082
16,CGGCCCAGAA,1 ± 0.015
17,CGGCCGTATA,0.998 ± 0.013
18,CGGCCTAAGG,1.01 ± 0.016
19,CGGCGAGAAC,1.045 ± 0.0023
20,CGGCGCGGAT,1.02 ± 0.04
21,CGGCGGCACC,1.0893 ± 0.00071
22,CGGCGGCAG,1.03 ± 0.064
23,CGGCGGGAAG,1 ± 0.023
24,CGGCGGGAGC,1.05 ± 0.038
25,CGGCGGGCTG,0.989 ± 0.062
26,CGGCGGGGTG,1.04 ± 0.055

row,Sequence,switch fluorescence ratio
1,CGGCGGGTCT,0.98 ± 0.052
2,CGGCGGGTGG,1.02 ± 0.041
3,CGGCGTAGGG,1.12 ± 0.15
4,CGGCGTTATG,0.988 ± 0.014
5,CGGCTAAGGG,0.981 ± 0.014
6,CGGCTACTTT,1.03 ± 0.038
7,CGGCTATGTG,0.985 ± 0.027
8,CGGCTATTAA,1.044 ± 0.0086
9,CGGCTGCGTG,0.998 ± 0.0073
10,CGGCTGGCGA,1.01 ± 0.059
11,CGGCTGGCTG,1.04 ± 0.011
12,CGGCTGGTCA,0.984 ± 0.021
13,CGGCTGTCAC,1.03 ± 0.025
14,CGGCTGTGGT,1.01 ± 0.03
15,CGGCTTGGT,1.02 ± 0.015
16,CGGCTTGTG,0.99726 ± 0.00036
17,CGGGAAAACG,0.995 ± 0.012
18,CGGGAAATGG,1.007 ± 0.0064
19,CGGGAACGGA,0.984 ± 0.033
20,CGGGAACGGT,1.01 ± 0.026
21,CGGGAACTTT,1.02 ± 0.065
22,CGGGAAGCTT,1 ± 0.082
23,CGGGAAGGGC,1.19 ± 0.32
24,CGGGAAGTTC,1.03 ± 0.016
25,CGGGAATCGT,1 ± 0.05
26,CGGGAATGGC,1.06 ± 0.079

row,Sequence,switch fluorescence ratio
1,CGGGAATTTT,1 ± 0.013
2,CGGGACATAG,0.964 ± 0.026
3,CGGGACCGGA,1.02 ± 0.073
4,CGGGACCTGG,0.958 ± 0.077
5,CGGGACGGAG,0.997 ± 0.11
6,CGGGAGAAAG,1 ± 0.022
7,CGGGAGATTA,0.9872 ± 0.0084
8,CGGGAGGGAC,0.994 ± 0.057
9,CGGGAGGGAG,1 ± 0.05
10,CGGGAGGTAT,1 ± 0.012
11,CGGGATCTGT,1.01 ± 0.024
12,CGGGATGTCA,0.955 ± 0.038
13,CGGGCAACGT,1.02 ± 0.037
14,CGGGCAAGGT,1.038 ± 0.01
15,CGGGCATTGT,1.01 ± 0.051
16,CGGGCCTTTT,1 ± 0.023
17,CGGGCGAGGA,0.989 ± 0.029
18,CGGGCGCAGT,1.02 ± 0.043
19,CGGGCGGGAC,1.59 ± 0.021
20,CGGGCGGGGG,1.06 ± 0.12
21,CGGGCTCAGC,1.008 ± 0.0094
22,CGGGCTTATT,0.988 ± 0.02
23,CGGGCTTTTT,1.016 ± 0.0065
24,CGGGGAAATG,0.997 ± 0.023
25,CGGGGAAGTT,0.9847 ± 0.0079
26,CGGGGACGAC,1.63 ± 0.72

row,Sequence,switch fluorescence ratio
1,CGGGGACTGG,0.9726 ± 0.0072
2,CGGGGAGGTG,1.1 ± 0.087
3,CGGGGAGTCG,0.945 ± 0.023
4,CGGGGATGGC,0.979 ± 0.011
5,CGGGGATGGG,0.992 ± 0.022
6,CGGGGATTAG,0.994 ± 0.017
7,CGGGGATTGC,1.01 ± 0.016
8,CGGGGCCTTT,1.02 ± 0.037
9,CGGGGCGGAT,1.04 ± 0.016
10,CGGGGCTTAT,0.9909 ± 0.0014
11,CGGGGGAAGC,1.02 ± 0.041
12,CGGGGGACGG,0.982 ± 0.029
13,CGGGGGAGAC,0.971 ± 0.019
14,CGGGGGAGCT,1.02 ± 0.029
15,CGGGGGATGC,1.05 ± 0.036
16,CGGGGGATTA,1.02 ± 0.049
17,CGGGGGCAGA,1 ± 0.023
18,CGGGGGCCCT,1.01 ± 0.034
19,CGGGGGCGCT,1.02 ± 0.013
20,CGGGGGCTGC,1.13 ± 0.1
21,CGGGGGGAGC,1.01 ± 0.056
22,CGGGGGGATG,1.01 ± 0.033
23,CGGGGGGATT,0.997 ± 0.012
